Experimental data from patent US20240425837A1 (Novo Nordisk, published 2024).
No end group written: not given here.

Legend:
Assay in all cases: ELISA, biotinylated 12-mer peptide on streptavidin, 2 ug/mL FLAG-tagged VHH, anti-FLAG-HRP
[1] = biological target: T1, FX activation peptide 12-mer DSITWKPYDAAD (SEQ ID NO:706) (human)
T1 peptide: DSITWKPYDAAD-biotin
Description: (§1) To determine whether the binding epitope of the anti-FX VHH polypeptide designated “cmpd #1” are located inside the activation peptide (AP) of human FX (SEQ ID NO:2), an ELISA assay was setup. 41 unique 12-mer peptide fragments spanning the 52 residues of the activation peptide with one amino acid spacing were immobilized in microtiter plate wells followed by incubation with the VHH polypeptide to be tested, and detection of bound ligand was performed by addition of a secondary HRP-labelled antibody.
(§2) The peptides were C-terminally conjugated to biotin and 50 μL of 1 μg/mL peptide solution was used for immobilization in discrete wells of the microtiter plate which was pre-coated with 1 μg/mL streptavidin. Each well was washed with washing buffer (10 mM Tris, 150 mM NaCl, 2.5 mM CaCl₂, 0.05% Tween 20, pH 8.60) followed by addition of 50 μL of 2 μg/mL FLAG-tagged anti-FX VHH polypeptide or IgG antibody to be tested. After 1 hour non-bound VHH polypeptide was washed off using washing buffer.
(§3) Bound anti-FX activation peptide ligand was detected by first binding a HRP-labelled secondary antibody (for FLAG-tagged VHH polypeptide: Anti-FLAG mAb M2-Peroxidase (HRP) (Sigma Aldrich, US) for 1 hour, and then adding 100 μL TMB-1 ELISA substrate (Kem-En-Tec Diagnostics, Denmark).

[2] = biological target: T2, FX activation peptide 12-mer LDPTENPFDLLD (SEQ ID NO:718) (human)
T2 peptide: LDPTENPFDLLD-biotin
Description: as §1, §2, §3

[3] = biological target: T3, FX activation peptide 12-mer ADLDPTENPFDL (SEQ ID NO:716) (human)
T3 peptide: ADLDPTENPFDL-biotin
Description: as §1, §2, §3

[4] = biological target: T4, FX activation peptide 12-mer ATSSSGEAPDSI (SEQ ID NO:697) (human)
T4 peptide: ATSSSGEAPDSI-biotin
Description: as §1, §2, §3

ELISA signal normalized relative to the background signal [1]: 1.08 fold of background | ELISA signal normalized relative to the background signal [2]: 1.11 fold of background | ELISA signal normalized relative to the background signal [3]: 0.91 fold of background | ELISA signal normalized relative to the background signal [4]: 0.98 fold of background
B1: Cmpd #1 (monovalent anti-FX VHH polypeptide, VHH-1.1) (VHH)
VHH: EVQLVESGGGLVQPGGSLRLSCAASGSIGAFDAMGWYRQAPGKQRELVAGIMVSRGNTNYTDSVKGRFTISRDNAKNTVYLQMNSLKPEDTAVYYCKAVKRPGPGYLEVWGQGTLVTVSS
notes: no protractor; FLAG-tagged in the peptide ELISA
